PMC11742315, “Identification of a staphylococcal dipeptidase involved in the production of human body odor” (The Journal of Biological Chemistry, 2024)

Experiments:
Assay in all cases: purified protein
[1] = test system: CCCC(C)(CCO)SC[C@H](N)C(=O)NCC(=O)O; settings: Mn2+-bound enzyme; 0.1 M Tris-HCl (pH 80 [sic]); coupled with ShPatB
N[C@@H](CS)C(=O)NCC(=O)O = settings: Mn2+-bound enzyme, 50 mM potassium phosphate, 200 mM NaCl, 37 °C
purified protein = substrate: CCCC(C)(CCO)SC[C@H](N)C(=O)NCC(=O)O; settings: 0.1 M Tris-HCl (pH 80 [sic]), coupled with ShPatB

**Q.** Which results are given for ShPepV (Staphylococcus hominis)?
**A.** Km [1]: 1290 ± 40 µM; kcat [1]: 3.41 ± 0.07 s⁻¹; kcat/Km [1]: 2640 ± 100 M⁻¹ s⁻¹; Km (N[C@@H](CS)C(=O)NCC(=O)O): 2190 ± 220 µM; kcat (N[C@@H](CS)C(=O)NCC(=O)O): 405 ± 23.6 s⁻¹; kcat/Km (N[C@@H](CS)C(=O)NCC(=O)O): 186000 ± 21800 M⁻¹ s⁻¹

B1: SaPepV (Staphylococcus aureus subsp. aureus USA300) (protein)
chain: MWKEKVQQYEDQIINDLKGLLAIESVRDDAKASEDAPVGPGPRKALDYMYEIAHRDGFTTHDVDHIAGRIEAGKGNDVLGILCHVDVVPAGDGWDSNPFEPVVTEDAIIARGTLDDKGPTIAAYYAIKILEDMNVDWKKRIHMIIGTDEESDWKCTDRYFKTEEMPTLGFAPDAEFPCIHGEKGITTFDLVQNKLTEDQDEPDYELITFKSGERYNMVPDHAEARVLVKENMTDVIQDFEYFLEQNHLQGDSTVDSGILVLTVEGKAVHGMDPSIGVNAGLYLLKFLASLNLDNNAQAFVAFSNRYLFNSDFGEKMGMKFHTDVMGDVTTNIGVITYDNENAGLFGINLRYPEGFEFEKAMDRFANEIQQYGFEVKLGKVQPPHYVDKNDPFVQKLVTAYRNQTNDMTEPYTIGGGTYARNLDKGVAFGAMFSDSEDLMHQKNEYITKKQLFNATSIYLEAIYSLCVEE
**Q.** How did the Km (purified protein; Mn2+-bound enzyme) turn out when B1 was run?
**A.** 3340 ± 340 µM

B2: CgTpdA (Corynebacterium glaucum) (protein)
chain: MSNDNAVNSAVTSTDFTFSPNRERIFQELAELISHYSPHSMPEHAATHEEAAKWVTAKLEELGLDVTRHPTVDDADTIIGVKEPVGDAPTVLLYSHYDVVPAQNPAVWTNDPLELDERGGRWYGRGAADCKGNVIMHLAALRMVQENGGTDLGIKVVVEGSEELGGEDGLGKLIDANPELFTADVIFIGDGGNVAVGIPTLTTHLRGGAQLRIKVDTLEGPVHSGGWGGAAPDAAHALIRISDSFFDEHGRTTIEGVDTTAKWEGDPYDRETFRKDARVLDGVQLLGTVDDEPADMVWARPAITVIGFTSVPVKDATNIVNSTAEAQFNLRVPAPQSAAEVAKKVEEQIYARAPWGAKVEVSVTGVNEPFSTDPNGPAVQHFGKCMQDAYGAERLTVVGTGGSIPLTVTLQKHFPDAEFALYGVADPAANIHGIDESVDPTEIEHVAIAEATFLLTYGK
**Q.** B2 was tested. Which Km (purified protein) did it give?
**A.** 480 ± 30 µM
